Reference: paper PMC11805746 (Discover Nano, 2025)

Target: IsdB point mutant P173A (IsdB^P173A) (Staphylococcus aureus, UniProt Q2FZF0 41-613, P173A)
Assay: atomic force spectroscopy

B1: methemoglobin (oxidized human hemoglobin A) (complex)
chain 1: not shown
chain 2: not shown
Binder B1 has a koff of 0.0025 s⁻¹.
